Test results reported in IntAct's records for PubMed 10521435.

B1: Chaperone protein DnaJ (Escherichia coli (strain K12)), P08622 (parent)
chain: MAKQDYYEILGVSKTAEEREIRKAYKRLAMKYHPDRNQGDKEAEAKFKEIKEAYEVLTDSQKRAAYDQYGHAAFEQGGMGGGGFGGGADFSDIFGDVFGDIFGGGRGRQRAARGADLRYNMELTLEEAVRGVTKEIRIPTLEECDVCHGSGAKPGTQPQTCPTCHGSGQVQMRQGFFAVQQTCPHCQGRGTLIKDPCNKCHGHGRVERSKTLSVKIPAGVDTGDRIRLAGEGEAGEHGAPAGDLYVQVQVKQHPIFEREGNNLYCEVPINFAMAALGGEIEVPTLDGRVKLKVPGETQTGKLFRMRGKGVKSVRGGAQGDLLCRVVVETPVGLNERQKQLLQELQESFGGPTGEHNSPRSKSFFDGVKKFFDDLTR

Variants of: B1
Conditions: with dnak_ecoli dnaK

Effect of a mutation on the interaction, decreasing interaction:
K62A
R63A
K62A;R63A
